{
  "source": "paper PMC5714612",
  "about": "(Cell Reports, 2017)",
  "molecules": {"B1": {"name": "endogenous Kif1A (natural protein, UniProt P33173 1-1695, looked up)", "chain": "MAGASVKVAVRVRPFNSREMSRDSKCIIQMSGSTTTIVNPKQPKETPKSFSFDYSYWSHTSPEDINYASQKQVYRDIGEEMLQHAFEGYNVCIFAYGQTGAGKSYTMMGKQEKDQQGIIPQLCEDLFSRINDTTNDNMSYSVEVSYMEIYCERVRDLLNPKNKGNLRVREHPLLGPYVEDLSKLAVTSYNDIQDLMDSGNKPRTVAATNMNETSSRSHAVFNIIFTQKRHDAETNITTEKVSKISLVDLAGSERADSTGAKGTRLKEGANINKSLTTLGKVISALAEMDSGPNKNKKKKKTDFIPYRDSVLTWLLRENLGGNSRTAMVAALSPADINYDETLSTLRYADRAKQIRCNAIINEDPNNKLIRELKDEVTRLRDLLYAQGLGDITDMTNALVGMSPSSSLSALSSRAASVSSLHERILFAPGSEEAIERLKETEKIIAELNETWEEKLRRTEAIRMEREALLAEMGVAMREDGGTLGVFSPKKTPHLVNLNEDPLMSECLLYYIKDGVTRVGREDAERRQDIVLSGHFIKEEHCIFRSDSRGGGEAVVTLEPCEGADTYVNGKKVTEPSILRSGNRIIMGKSHVFRFNHPEQARQERERTPCAETPAEPVDWAFAQRELLEKQGIDMKQEMEQRLQELEDQYRREREEATYLLEQQRLDYESKLEALQKQMDSRYYPEVNEEEEEPEDEVQWTERECELALWAFRKWKWYQFTSLRDLLWGNAIFLKEANAISVELKKKVQFQFVLLTDTLYSPLPPDLLPPEAAKDRETRPFPRTIVAVEVQDQKNGATHYWTLEKLRQRLDLMREMYDRAAEVPSSVVEDCDNVVTGGDPFYDRFPWFRLVGRAFVYLSNLLYPVPLVHRVAIVSEKGEVKGFLRVAVQAISADEEAPDYGSGVRQSGTAKISFDDQHFEKFQSESCPVVGMSRSGTSQEELRIVEGQGQGADAGPSADEVNNNTCSAVPPEGLMDSPEKAALDGPLDTALDHLRLGSTFTFRVTVLQASSISAEYADIFCQFNFIHRHDEAFSTEPLKNTGRGPPLGFYHVQNIAVEVTKSFIEYIKSQPIVFEVFGHYQQHPFPPLCKDVLSPLRPSRRHFPRVMPLSKPVPATKLSTMTRPSPGPCHCKYDLLVYFEICELEANGDYIPAVVDHRGACMGTFLLHQGIQRRITVTLLHETGSHIRWKEVRELVVGRIRNTPETDEALIDPNILSLNILSSGYVHPAQDDRVFFGNDTRTFYQFEAAWDSSMHNSLLLNRVTPYREKIYMTLSAYIEMENCTQPAVITKDFCMVFYSRDAKLPASRSIRNLFGSGSLRATEGNRVTGVYELSLCHVADAGSPGMQRRRRRVLDTSVAYVRGEENLAGWRPRSDSLILDHQWELEKLSLLQEVEKTRHYLLLREKLETTQRPGPEVLSPASSEDSESRSSSGASSPLSAEGQPSPLEAPNERQRELAVKCLRLLMHTFNREYTHSHVCISASESKLSEMSVTLMRDPSMSPLGAATLTPSSTCPSLIEGRYGATDVRTPQPCSRPASPEPELLPELDSKKTPSPVRATETEKEPQRLLVPDIQEIRVSPIVSKKGYLHFLEPHTAGWAKRFVVVRRPYAYMYNSDKDTVERFVLNLSTAQVEYSEDQQAMLKTPNTFAVCTEHRGILLQANSDKDMHDWLYAFNPLLAGTIRSKLSRRRSAQMRV"}, "B2": {"name": "mCherry-tagged S135A Syt4 (phosphodeficient) (natural protein, rat, UniProt P50232 1-425, looked up)", "chain": "MAPITTSRVEFDEIPTVVGIFSAFGLVFTVSLFAWICCQRRSAKSNKTPPYKFVHVLKGVDIYPENLSSKKKFGGDDKSEAKRKAALPNLSLHLDLEKRDLNGNFPKTNPKAGSSSDLENVTPKLFPETEKEAVAPESLKSSTSLTSEEKQEKLGTLFLSLEYNFEKKAFVVNIKEAQGLPAMDEQSMTSDPYIKMTILPEKKHKVKTRVLRKTLDPVFDETFTFYGVPYPHIQELSLHFTVLSFDRFSRDDVIGEVLVPLSGIELSDGKMLMTREIIKRNAKKSSGRGELLVSLCYQSTTNTLTVVVLKARHLPKSDVSGLSDPYVKVNLYHAKKRISKKKTHVKKCTPNAVFNELFVFDIPCESLEEISVEFLVLDSERGSRNEVIGRLVLGATAEGSGGGHWKEICDFPRRQIAKWHMLCDG"}, "B3": {"name": "mCherry-tagged S135E Syt4 (phosphomimetic) (natural protein, rat, UniProt P50232 1-425, looked up)", "chain": "B2 chain with A135E"}, "B4": {"name": "Kif1A-GFP (natural protein, rat, UniProt F1M4A4 1-1707, looked up)", "chain": "MAGASVKVAVRVRPFNSREMSRDSKCIIQMSGSTTTIVNPKQPKETPKSFSFDYSYWSHTSPEDINYASQKQVYRDIGEEMLQHAFEGYNVCIFAYGQTGAGKSYTMMGKQEKDQQGIIPQLCEDLFSRINDTTNDNMSYSVEVSYMEIYCERVRDLLNPKNKGNLRVREHPLLGPYVEDLSKLAVTSYNDIQDLMDSGNKARTVAATNMNETSSRSHAVFNIIFTQKRHDAETNITTEKVSKISLVDLAGSERADSTGAKGTRLKEGANINKSLTTLGKVISALAEMDSGPNKNKKKKKTDFIPYRDSVLTWLLRENLGGNSRTAMVAALSPADINYDETLSTLRYADRAKQIRCNAIINEDPNNKLIRELKDEVTRLRDLLYAQGLGDITDTNTVPGGPKLTNALVGMSPSSSLSALSSRAASVSSLHERILFAPGSEEAIERLKETEKIIAELNETWEEKLRRTEAIRMEREALLAEMGVAMREDGGTLGVFSPKKTPHLVNLNEDPLMSECLLYYIKDGVTRVGREDAERRQDIVLSGHFIKEEHCIFRSDSRGGGEAVVTLEPCEGADTYVNGKKVTEPSILRSGNRIIMGKSHVFRFNHPEQARQERERTPCAETPAEPVDWAFAQRELLEKQGIDMKQEMEQRLQELEDQYRREREEATYLLEQQRLDYESKLEALQKQMDSRYYPEVNEEEEEPEDEVQWTERECELALWAFRKWKWYQFTSLRDLLWGNAIFLKEANAISVELKKKVQFQFVLLTDTLYSPLPPDLLPPEAAKDRETRPFPRTIVAVEVQDQKNGATHYWTLEKLRQRLDLMREMYDRAAEVPSSVVEDCDNVVTGGDPFYDRFPWFRLVGRAFVYLSNLLYPVPLVHRVAIVSEKGEVKGFLRVAVQAISADEEAPDYGSGVRQSGTAKISFDDQHFEKFQSESCPVVGMSRSGTSQEELRIVEGQGQGADAGPSADEVNNNTCSAVPPEGLLDSPEKAALDGPLDTALDHLRLGSTFTFRVTVLQASSISAEYADIFCQFNFIHRHDEAFSTEPLKNTGRGPPLGFYHVQNIAVEVTKSFIEYIKSQPIVFEVFGHYQQHPFPPLCKDVLSPLRPSRRHFPRVMPLSKPVPATKLSTMTRPSPGPCHCKYDLLVYFEICELEANGDYIPAVVDHRGGMPCMGTFLLHQGIQRRITVTLLHETGSHIRWKEVRELVVGRIRNTPETDEALIDPNILSLNILSSGYVHPAQDDRQFLDSDIPRTFYQFEAAWDSSMHNSLLLNRVTPYREKIYMTLSAYIEMENCTQPAVITKDFCMVFYSRDAKLPASRSIRNLFGSGSLRATEGNRVTGVYELSLCHVADAGSPGMQRRRRRVLDTSVAYVRGEENLAGWRPRSDSLILDHQWELEKLSLLQEVEKTRHYLLLREKLETTQRPVPEVLSPASSEDSESRSSSGASSPLSAEGQPSPLEVPNERQRELAVKCLRLLMHTFNREYTHSHVCISASESKLSEMSVTLMRDPSMSPLGAATLTPSSTCPSLIEGRYGATDVRTPQPCSRPASPEPELLPELDSKKTPSPVRATETEKEPQRLLVPDIQEIRVSPIVSKKGYLHFLEPHTAGWAKRFVVVRRPYAYMYNSDKDTVERFVLNLSTAQVEYSEDQQAMLKTPNTFAVCTEHRGILLQANSDKDMHDWLYAFNPLLAGTIRSKLSRRRSAQMRV"}},
  "key": {"[1]": {"biological_target": "Kif1A (Kif1A-GFP, GST-tagged full-length Kif1A) (UniProt F1M4A4)", "assay": "co-IP with GFP-Trap beads, Syt4 blotted", "conditions": "reference: S135A; sites S135"}, "[2]": {"biological_target": "T1, Recombinant His-tagged S135E Syt4 (rat, UniProt P50232 1-425, S135E)", "T1 sequence (looked up)": "B2 chain with A135E", "assay": "pull-down"}, "Kif1A-GFP": {"biological_target": "B4", "assay": "co-IP"}, "[3]": {"biological_target": "B2", "assay": "co-IP"}, "[4]": {"biological_target": "B3", "assay": "co-IP"}},
  "note": "Numbering of substitutions follows the chain as printed. Names and notes keep the numbering of the source.",
  "data": [
    {"molecule": "Synaptotagmin-4 (Syt4) (from UniProt P50232) S135E", "values": [
      {"measurement": "other: percent of WT", "setting": "[1]", "result": "weaker; reference 134.4 ± 11.1"}
    ]},
    {"molecule": "B1", "values": [
      {"measurement": "amount pulled down, percent of WT", "setting": "[2]", "result": "43.6 % of WT"}
    ]},
    {"molecule": "B2", "values": [
      {"measurement": "amount co-immunoprecipitated, percent of WT", "setting": "Kif1A-GFP", "result": "134 % of WT"}
    ]},
    {"molecule": "B3", "values": [
      {"measurement": "amount co-immunoprecipitated, percent of WT", "setting": "Kif1A-GFP", "result": "42.9 % of WT"}
    ]},
    {"molecule": "B4", "values": [
      {"measurement": "amount co-immunoprecipitated, percent of WT", "setting": "[3]", "result": "158 % of WT"},
      {"measurement": "amount co-immunoprecipitated, percent of WT", "setting": "[4]", "result": "87 % of WT"}
    ]}
  ]
}
